The text below walks through data of article PMC7531507.

Some targets named below: mouse GCGR (mouse) (UniProt Q61606); rat GLP-1R (rat) (UniProt P32301); mouse GLP-1R (mouse) (UniProt O35659); rat GCGR (rat) (UniProt P30082).
Experiment [1] has as its target human glucagon receptor (GCGR) (human) (UniProt P47871).
In experiment [2] the target is cynomolgus monkey GCGR (cynomolgus monkey).
In experiment [3] the target is cynomolgus monkey GLP-1R (cynomolgus monkey).

Sequence of UniProt P32301 (P32301 22-463): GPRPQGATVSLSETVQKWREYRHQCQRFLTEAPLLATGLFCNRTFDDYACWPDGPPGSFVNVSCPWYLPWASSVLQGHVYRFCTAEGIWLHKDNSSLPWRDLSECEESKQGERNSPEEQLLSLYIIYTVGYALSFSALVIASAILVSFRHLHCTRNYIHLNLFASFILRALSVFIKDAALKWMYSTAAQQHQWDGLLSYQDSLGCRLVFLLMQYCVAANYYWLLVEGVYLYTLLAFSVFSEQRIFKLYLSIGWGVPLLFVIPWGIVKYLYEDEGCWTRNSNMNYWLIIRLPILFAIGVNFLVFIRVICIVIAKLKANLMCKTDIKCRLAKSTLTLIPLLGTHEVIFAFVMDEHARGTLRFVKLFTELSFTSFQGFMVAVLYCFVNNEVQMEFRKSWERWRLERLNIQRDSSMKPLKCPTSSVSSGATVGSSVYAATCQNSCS
Sequence of UniProt O35659 (O35659 22-463): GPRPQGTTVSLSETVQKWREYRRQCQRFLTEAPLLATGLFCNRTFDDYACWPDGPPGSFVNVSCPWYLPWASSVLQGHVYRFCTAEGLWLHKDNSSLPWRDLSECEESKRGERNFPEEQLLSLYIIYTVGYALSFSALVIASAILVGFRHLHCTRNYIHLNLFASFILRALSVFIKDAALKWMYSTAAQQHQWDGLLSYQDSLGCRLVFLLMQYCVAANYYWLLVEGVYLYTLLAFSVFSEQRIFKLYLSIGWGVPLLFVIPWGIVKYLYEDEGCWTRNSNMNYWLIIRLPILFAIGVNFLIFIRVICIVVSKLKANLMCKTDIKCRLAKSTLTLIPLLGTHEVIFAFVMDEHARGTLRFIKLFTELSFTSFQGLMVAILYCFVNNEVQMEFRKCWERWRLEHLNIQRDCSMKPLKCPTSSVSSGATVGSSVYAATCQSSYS
Sequence of UniProt P30082 (P30082 27-485): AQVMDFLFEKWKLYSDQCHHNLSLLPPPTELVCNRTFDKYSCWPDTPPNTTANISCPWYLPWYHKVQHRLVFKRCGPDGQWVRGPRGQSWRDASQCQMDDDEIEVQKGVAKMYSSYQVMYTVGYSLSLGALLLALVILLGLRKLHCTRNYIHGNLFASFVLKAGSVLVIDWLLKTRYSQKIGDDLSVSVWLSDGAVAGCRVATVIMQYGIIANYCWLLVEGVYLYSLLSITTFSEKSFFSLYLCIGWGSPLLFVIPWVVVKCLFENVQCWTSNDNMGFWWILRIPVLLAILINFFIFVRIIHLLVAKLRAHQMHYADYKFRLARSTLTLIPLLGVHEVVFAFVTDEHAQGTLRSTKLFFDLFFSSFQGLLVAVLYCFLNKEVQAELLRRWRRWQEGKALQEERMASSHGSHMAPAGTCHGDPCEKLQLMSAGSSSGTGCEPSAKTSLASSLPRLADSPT
Sequence of UniProt Q61606 (Q61606 27-485): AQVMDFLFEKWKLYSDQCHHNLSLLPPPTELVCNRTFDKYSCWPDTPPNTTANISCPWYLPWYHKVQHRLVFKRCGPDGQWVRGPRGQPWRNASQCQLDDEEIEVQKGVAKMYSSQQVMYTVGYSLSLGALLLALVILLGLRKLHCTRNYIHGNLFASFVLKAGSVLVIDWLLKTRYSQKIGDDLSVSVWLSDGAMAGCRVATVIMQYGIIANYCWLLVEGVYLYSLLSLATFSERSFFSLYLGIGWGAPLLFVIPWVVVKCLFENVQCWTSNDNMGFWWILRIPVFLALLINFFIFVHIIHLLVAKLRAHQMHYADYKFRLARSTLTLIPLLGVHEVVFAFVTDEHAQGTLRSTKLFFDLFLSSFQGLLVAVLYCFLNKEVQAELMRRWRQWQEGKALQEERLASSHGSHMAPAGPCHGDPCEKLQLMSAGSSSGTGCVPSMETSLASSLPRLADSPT
Sequence of UniProt P47871 (P47871 26-477): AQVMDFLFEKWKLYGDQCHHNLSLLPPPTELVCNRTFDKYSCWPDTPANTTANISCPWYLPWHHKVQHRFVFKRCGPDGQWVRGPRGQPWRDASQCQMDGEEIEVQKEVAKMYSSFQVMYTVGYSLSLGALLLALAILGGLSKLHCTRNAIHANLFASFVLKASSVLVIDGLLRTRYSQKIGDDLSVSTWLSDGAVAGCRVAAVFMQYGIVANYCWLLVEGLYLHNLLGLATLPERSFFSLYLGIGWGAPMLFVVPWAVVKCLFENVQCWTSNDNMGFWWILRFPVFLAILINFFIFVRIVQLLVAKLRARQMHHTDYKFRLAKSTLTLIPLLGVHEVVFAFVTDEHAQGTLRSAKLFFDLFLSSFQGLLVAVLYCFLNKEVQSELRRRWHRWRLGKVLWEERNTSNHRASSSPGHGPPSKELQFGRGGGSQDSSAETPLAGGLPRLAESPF

In the experiment with mouse GCGR (mouse), native oxyntomodulin (peptide) showed an EC50 of cAMP in clonal HEK293 cells stably expressing mouse GCGR of 6.31 nM. This substance also came in with an EC50 of cAMP in clonal HEK293 cells stably expressing human GCGR in experiment [1] of 3.01 nM. The EC50 of cAMP in clonal HEK293 cells stably expressing rat GLP-1R with rat GLP-1R (rat) came to 0.98 nM. This substance also came in with an EC50 of cAMP in clonal HEK293 cells stably expressing mouse GLP-1R with mouse GLP-1R (mouse) of 1.9 nM. Moreover, the EC50 of cAMP in clonal HEK293 cells stably expressing cynomolgus monkey GCGR in experiment [2] came to 0.49 nM. Moreover, the EC50 of cAMP in clonal HEK293 cells stably expressing rat GCGR with rat GCGR (rat) was determined as 12.7 nM. Moreover, in experiment [3], the EC50 of cAMP in clonal HEK293 cells stably expressing cynomolgus monkey GLP-1R amounted to 0.8 nM.
